Target: ARID1A (endogenous, ARID1A-wildtype cancer cell lysate) (UniProt O14497)
Sequence of UniProt O14497 (O14497 whole entry, looked up): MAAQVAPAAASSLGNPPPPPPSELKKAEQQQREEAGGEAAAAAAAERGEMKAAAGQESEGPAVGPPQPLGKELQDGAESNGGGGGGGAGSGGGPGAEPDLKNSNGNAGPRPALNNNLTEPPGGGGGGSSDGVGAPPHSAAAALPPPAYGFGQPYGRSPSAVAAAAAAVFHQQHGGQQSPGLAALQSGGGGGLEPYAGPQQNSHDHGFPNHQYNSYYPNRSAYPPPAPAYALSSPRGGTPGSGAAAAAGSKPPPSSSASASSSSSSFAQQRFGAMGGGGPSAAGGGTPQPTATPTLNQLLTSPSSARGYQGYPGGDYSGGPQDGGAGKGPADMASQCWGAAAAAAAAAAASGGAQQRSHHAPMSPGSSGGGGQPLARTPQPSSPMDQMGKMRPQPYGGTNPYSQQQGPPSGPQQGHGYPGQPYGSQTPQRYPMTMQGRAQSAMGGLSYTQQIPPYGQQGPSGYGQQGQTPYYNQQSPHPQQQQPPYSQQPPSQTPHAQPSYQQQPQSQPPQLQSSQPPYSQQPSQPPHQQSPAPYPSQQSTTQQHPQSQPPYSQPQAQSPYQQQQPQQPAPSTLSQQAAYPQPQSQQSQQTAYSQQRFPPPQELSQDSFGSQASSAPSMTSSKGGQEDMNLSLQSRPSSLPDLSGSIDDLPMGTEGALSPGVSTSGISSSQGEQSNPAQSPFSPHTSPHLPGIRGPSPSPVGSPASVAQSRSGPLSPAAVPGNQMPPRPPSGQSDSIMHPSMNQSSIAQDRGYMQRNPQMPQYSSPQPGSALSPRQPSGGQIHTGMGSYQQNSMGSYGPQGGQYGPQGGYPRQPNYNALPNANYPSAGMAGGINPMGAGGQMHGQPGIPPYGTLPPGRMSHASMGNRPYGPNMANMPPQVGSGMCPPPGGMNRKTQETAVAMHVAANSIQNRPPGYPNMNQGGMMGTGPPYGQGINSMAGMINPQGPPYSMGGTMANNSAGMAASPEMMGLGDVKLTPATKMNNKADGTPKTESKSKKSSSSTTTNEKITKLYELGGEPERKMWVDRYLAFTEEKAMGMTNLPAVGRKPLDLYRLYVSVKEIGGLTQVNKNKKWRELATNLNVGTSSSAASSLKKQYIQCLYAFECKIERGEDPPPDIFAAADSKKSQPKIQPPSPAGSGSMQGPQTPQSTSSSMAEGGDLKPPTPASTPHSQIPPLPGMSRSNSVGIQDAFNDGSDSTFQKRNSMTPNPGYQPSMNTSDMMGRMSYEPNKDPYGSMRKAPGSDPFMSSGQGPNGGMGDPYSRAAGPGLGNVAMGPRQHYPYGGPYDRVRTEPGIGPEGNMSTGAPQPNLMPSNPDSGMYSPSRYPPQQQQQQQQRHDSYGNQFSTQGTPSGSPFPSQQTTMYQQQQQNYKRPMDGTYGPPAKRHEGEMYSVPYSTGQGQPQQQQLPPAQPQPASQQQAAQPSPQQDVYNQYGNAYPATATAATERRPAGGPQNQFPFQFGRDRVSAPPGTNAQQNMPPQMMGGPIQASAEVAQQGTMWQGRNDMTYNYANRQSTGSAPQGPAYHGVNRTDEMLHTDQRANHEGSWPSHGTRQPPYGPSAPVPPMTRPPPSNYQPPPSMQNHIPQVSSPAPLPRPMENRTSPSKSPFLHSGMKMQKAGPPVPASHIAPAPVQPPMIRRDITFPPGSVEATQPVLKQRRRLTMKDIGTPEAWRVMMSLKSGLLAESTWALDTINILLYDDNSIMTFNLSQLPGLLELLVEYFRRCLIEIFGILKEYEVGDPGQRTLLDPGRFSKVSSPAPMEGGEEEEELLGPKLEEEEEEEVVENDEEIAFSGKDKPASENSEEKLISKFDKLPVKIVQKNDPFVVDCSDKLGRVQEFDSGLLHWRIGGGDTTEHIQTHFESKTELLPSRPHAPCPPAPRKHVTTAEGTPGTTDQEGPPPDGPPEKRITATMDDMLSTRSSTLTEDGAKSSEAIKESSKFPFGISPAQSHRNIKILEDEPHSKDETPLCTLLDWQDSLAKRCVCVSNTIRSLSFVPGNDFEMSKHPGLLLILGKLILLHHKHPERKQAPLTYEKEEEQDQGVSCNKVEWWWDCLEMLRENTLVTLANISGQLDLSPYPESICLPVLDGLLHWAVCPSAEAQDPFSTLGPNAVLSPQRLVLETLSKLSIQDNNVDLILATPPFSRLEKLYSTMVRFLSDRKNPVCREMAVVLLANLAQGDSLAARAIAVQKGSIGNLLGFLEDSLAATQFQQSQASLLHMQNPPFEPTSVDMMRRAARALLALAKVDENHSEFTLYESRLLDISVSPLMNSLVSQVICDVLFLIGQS

Carbamoyl-phosphate synthetase 2, Aspartate transcarbamoylase, and Dihydroorotase (CAD) (endogenous)
total CAD and phosphorylated CAD (Serine-1859) protein levels by immunoblot after ARID1A knockdown or restoration: wildtype ARID1A functions as a negative regulator of CAD, wherein ARID1A deficiency results in an increase in total and phosphorylated CAD

Reference: patent US20210154165
